The values below are quoted from earlier work in PMC3045798.

The series concerns the target Cys25 (UniProt position 158, GSCGSCWAFSA).

For “Papain (Carica papaya (not stated in the article))”, the pKa result is “around 2.5 to 3.5”.
